Laboratory results taken from ChEMBL document CHEMBL5257037, “Side Chain Cyclized Aromatic Amino Acids: Great Tools as Local Constraints in Peptide and Peptidomimetic Design” (J Med Chem, 2016).

Substrate: CC[C@H](C)[C@H](NC(=O)[C@H](Cc1cnc[nH]1)NC(=O)[C@H](Cc1ccccc1)NC(=O)OCc1ccccc1)C(=O)O
Test: Binding affinity to angiotensin-converting enzyme (unknown origin) assessed as Km
Conditions: Homo sapiens

B1: Angiotensin-converting enzyme (Homo sapiens), P12821 (protein)
chain: MGAASGRRGPGLLLPLPLLLLLPPQPALALDPGLQPGNFSADEAGAQLFAQSYNSSAEQVLFQSVAASWAHDTNITAENARRQEEAALLSQEFAEAWGQKAKELYEPIWQNFTDPQLRRIIGAVRTLGSANLPLAKRQQYNALLSNMSRIYSTAKVCLPNKTATCWSLDPDLTNILASSRSYAMLLFAWEGWHNAAGIPLKPLYEDFTALSNEAYKQDGFTDTGAYWRSWYNSPTFEDDLEHLYQQLEPLYLNLHAFVRRALHRRYGDRYINLRGPIPAHLLGDMWAQSWENIYDMVVPFPDKPNLDVTSTMLQQGWNATHMFRVAEEFFTSLELSPMPPEFWEGSMLEKPADGREVVCHASAWDFYNRKDFRIKQCTRVTMDQLSTVHHEMGHIQYYLQYKDLPVSLRRGANPGFHEAIGDVLALSVSTPEHLHKIGLLDRVTNDTESDINYLLKMALEKIAFLPFGYLVDQWRWGVFSGRTPPSRYNFDWWYLRTKYQGICPPVTRNETHFDAGAKFHVPNVTPYIRYFVSFVLQFQFHEALCKEAGYEGPLHQCDIYRSTKAGAKLRKVLQAGSSRPWQEVLKDMVGLDALDAQPLLKYFQPVTQWLQEQNQQNGEVLGWPEYQWHPPLPDNYPEGIDLVTDEAEASKFVEEYDRTSQVVWNEYAEANWNYNTNITTETSKILLQKNMQIANHTLKYGTQARKFDVNQLQNTTIKRIIKKVQDLERAALPAQELEEYNKILLDMETTYSVATVCHPNGSCLQLEPDLTNVMATSRKYEDLLWAWEGWRDKAGRAILQFYPKYVELINQAARLNGYVDAGDSWRSMYETPSLEQDLERLFQELQPLYLNLHAYVRRALHRHYGAQHINLEGPIPAHLLGNMWAQTWSNIYDLVVPFPSAPSMDTTEAMLKQGWTPRRMFKEADDFFTSLGLLPVPPEFWNKSMLEKPTDGREVVCHASAWDFYNGKDFRIKQCTTVNLEDLVVAHHEMGHIQYFMQYKDLPVALREGANPGFHEAIGDVLALSVSTPKHLHSLNLLSSEGGSDEHDINFLMKMALDKIAFIPFSYLVDQWRWRVFDGSITKENYNQEWWSLRLKYQGLCPPVPRTQGDFDPGAKFHIPSSVPYIRYFVSFIIQFQFHEALCQAAGHTGPLHKCDIYQSKEAGQRLATAMKLGFSRPWPEAMQLITGQPNMSASAMLSYFKPLLDWLRTENELHGEKLGWPQYNWTPNSARSEGPLPDSGRVSFLGLDLDAQQARVGQWLLLFLGIALLVATLGLSQRLFSIRHRSLHRHSHGPQFGSEVELRHS
- Km: 0.01 µM
